Patent publication US20120288511A1 (INDIANA UNIVERSITY RESEARCH AND TECHNOLOGY, published 2012)
Where two headings read alike, the source gives them in different places. Non-standard residues stand in square brackets, D forms with d. No end group written: not given here. Aib = CC(C)(N)C(=O)O

Legend:
Assay in all cases: cell-based or functional assay
[1] = biological target: T1, glucagon receptor (human, UniProt P47871 26-477)
[2] = biological target: T2, GLP-1 receptor (human, UniProt P43220 24-463)
[3] = biological target: T1, glucagon receptor; remark: listed apart in the source
[4] = biological target: T2, GLP-1 receptor; remark: listed apart in the source
[5] = biological target: T1, glucagon receptor; remark: listed apart in the source
[6] = biological target: T2, GLP-1 receptor; remark: listed apart in the source
[7] = biological target: T1, glucagon receptor; remark: listed apart in the source
[8] = biological target: T2, GLP-1 receptor; remark: listed apart in the source
[9] = biological target: T1, glucagon receptor; remark: listed apart in the source
[10] = biological target: T2, GLP-1 receptor; remark: listed apart in the source
[11] = biological target: T1, glucagon receptor; remark: listed apart in the source
[12] = biological target: T2, GLP-1 receptor; remark: listed apart in the source
[13] = biological target: T1, glucagon receptor; remark: listed apart in the source
[14] = biological target: T2, GLP-1 receptor; remark: listed apart in the source

T1 sequence (P47871 26-477): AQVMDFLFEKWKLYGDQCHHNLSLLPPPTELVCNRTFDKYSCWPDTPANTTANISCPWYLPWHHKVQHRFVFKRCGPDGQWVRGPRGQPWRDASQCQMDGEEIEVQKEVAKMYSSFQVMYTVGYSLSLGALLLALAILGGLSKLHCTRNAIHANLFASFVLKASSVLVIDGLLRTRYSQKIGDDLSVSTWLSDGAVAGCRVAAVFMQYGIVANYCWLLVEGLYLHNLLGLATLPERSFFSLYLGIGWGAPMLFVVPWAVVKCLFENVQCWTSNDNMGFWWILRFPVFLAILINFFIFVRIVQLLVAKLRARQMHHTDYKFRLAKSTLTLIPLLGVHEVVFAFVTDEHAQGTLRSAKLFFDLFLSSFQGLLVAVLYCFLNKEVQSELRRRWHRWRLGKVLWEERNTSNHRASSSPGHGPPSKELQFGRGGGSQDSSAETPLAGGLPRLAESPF

Binder: HSQGTFTSDYSKYLDEEAVRLFIEWLMNT-NH2 (not fully specified (residue 2)) [Glucagon Analog A]
- EC50 (cAMP luciferase reporter) [1]: 61 pM
- EC50 (cAMP luciferase reporter) [2]: 9 pM

Binder: H[Aib]QGTFTSDYSKYLDEQAAKEFIAWLMNT-NH2 [Glucagon Analog D]
- EC50 (cAMP luciferase reporter) [1]: 850 pM
- EC50 (cAMP luciferase reporter) [2]: 20 pM

B1: Glucagon Analog 24 (peptide)
peptide: HSQGTFTSDYSKYLDEKRAKEFVC(PEG 40 kDa)WLMNT-NH2
modifications: also: DPP-IV-protecting residue at position 1 or 2 not given here, non-covalent salt bridge Lys17/Glu21
- % Relative Activity vs native glucagon [3]: 7%
- EC50 (cAMP luciferase reporter) [3]: 676 pM
- % Relative Activity vs native GLP-1 [4]: 5%
- EC50 (cAMP luciferase reporter) [4]: 1580 pM

Binder: HSQGTFTSDYSKYLDEQAAKEFIAWLMNT-NH2 (not fully specified (residue 2)) [Glucagon Analog B]
- EC50 (cAMP luciferase reporter) [1]: 72 pM
- EC50 (cAMP luciferase reporter) [2]: 14 pM

Binder: HSQKTFTEDYSKYLDSRRAQDFVQWLMNT (not fully specified; also: further groups not given here) [Peptide 17]
- EC50 (cAMP luciferase reporter) [5]: 862000 pM
- EC50 (cAMP luciferase reporter) [6]: 148000 pM

B2: Glucagon Analog 20 (peptide)
peptide: HSQGTFTSDYSKYLDEKRAKEFVQWLMNT-NH2
modifications: also: DPP-IV-protecting residue at position 1 or 2: D-Ser, Aib or Dmia, salt bridge Lys17/Glu21 plus salt bridge 16/20 or α,α-disubstituted residue at 16
- EC50 (cAMP luciferase reporter) [7]: 54 pM
- EC50 (cAMP luciferase reporter) [8]: 284 pM
- EC50 (cAMP luciferase reporter) [3]: 54 pM
- EC50 (cAMP luciferase reporter) [4]: 284 pM

Binder: HSQGTFTSDKSKYLDERAAQDFVQWLLDT-NH2 (not fully specified; also: position 2 Aib or D-Ser) [Glucagon Analog 51]
- EC50 (cAMP luciferase reporter) [9]: 3.5 pM
- EC50 (cAMP luciferase reporter) [10]: 3.9 pM
- % Relative Activity vs native glucagon [11]: 314%
- EC50 (cAMP luciferase reporter) [11]: 3.5 pM
- % Relative Activity vs native GLP-1 [12]: 949%
- EC50 (cAMP luciferase reporter) [12]: 3.9 pM
- % Relative Activity vs native glucagon [13]: 314%
- EC50 (cAMP luciferase reporter) [13]: 4 pM
- % Relative Activity vs native GLP-1 [14]: 949%
- EC50 (cAMP luciferase reporter) [14]: 4 pM

Binder: HAQGTFTSDKSKYLDERAAQDFVCWLLDT (not fully specified (C-terminus)) [Glucagon Analog 59]
- % Relative Activity vs native glucagon [13]: 490%
- EC50 (cAMP luciferase reporter) [13]: 10 pM
- % Relative Activity vs native GLP-1 [14]: 484%
- EC50 (cAMP luciferase reporter) [14]: 19 pM

Binder: H[Aib]QGTFTSDYSKYLDEEAVRLFIEWLMNT-NH2 [Glucagon Analog C]
- EC50 (cAMP luciferase reporter) [1]: 170 pM
- EC50 (cAMP luciferase reporter) [2]: 6 pM

Binder: HSQGTFTSDYSKYLDKRRAEDFVQWLMNT (not fully specified; also: further groups not given here) [Peptide 3]
- EC50 (cAMP luciferase reporter) [5]: 340 pM
- EC50 (cAMP luciferase reporter) [6]: 1150 pM

Binder: KAHSEGTFTSDYSKYLDSRRAQDFVQWLMNT (not fully specified; also: further groups not given here) [Peptide 12]
- EC50 (cAMP luciferase reporter) [5]: 85900 pM
- EC50 (cAMP luciferase reporter) [6]: 41700 pM

Binder: KAHSEGTFTSDYSKYLDSRRAQDFVQWLMNT (not fully specified; also: further groups not given here) [Peptide 13]
- EC50 (cAMP luciferase reporter) [5]: 30700 pM
- EC50 (cAMP luciferase reporter) [6]: 14400 pM

B3: Glucagon Analog 29 (peptide)
peptide: HSQGTFTSDKSKYLDERAAQDFVC(PEG 40 kDa)WLLDT-NH2
modifications: not fully specified (residue 10); also: Lys10 acylated, acyl group not given here
- EC50 (cAMP luciferase reporter) [9]: 85 pM
- EC50 (cAMP luciferase reporter) [10]: 84 pM
- EC50 (cAMP luciferase reporter) [7]: 85 pM
- percent in parentheses (not explained) [7]: 74%
- EC50 (cAMP luciferase reporter) [8]: 84 pM
- percent in parentheses (not explained) [8]: 16%
- % Relative Activity vs native glucagon [13]: 40%
- EC50 (cAMP luciferase reporter) [13]: 85 pM
- % Relative Activity vs native GLP-1 [14]: 43%
- EC50 (cAMP luciferase reporter) [14]: 84 pM
